Test results from patent publication US20120178908A1 (Novo Nordisk, published 2012).
* marks the point of attachment. Biotin = O=C1N[C@H]2[C@H](CS[C@H]2CCCCC(=O)*)N1; AEEA = NCCOCCOCC(=O)O

How the values were obtained:
Assay in all cases: peptide-walk ELISA, biotin-peptide on streptavidin plate, triple determination
[1] = biological target: T1, biotinylated 16mer hTLT-1 stalk peptide 41 (SMILES …)
T1 construct: also called well D 5
T1 peptide: {Biotin-AEEA}-HKIGSLAENAFSDPAG-NH2
Experimental: (§1) Epitope mapping by peptide walk. The peptide walking ELISA defined the minimal binding region of the peptide. This was established by coating biotinylated peptides with one residue frameshift in the stalk region of TLT-1 in streptavidin plates followed by binding of the antibody of interest (mAb 0061). A secondary antibody was added for detection and binding was measured at 450 nm. Positive control: binding to biotinylated TLT-1.
(§2) 1) 20mer peptide mapping with one residue frameshift (20,1) (see materials) 2) 16mer peptide mapping with one residue frameshift (16,1) (see materials) [0687] 1. Plate was prre-washed 3× with 250 μl wash buffer [0688] 2. 100 μl Biotinylated peptide-solution was added (from Masterplate 10000× diluted, one peptide pr well) [0689] 3. Incubated at RT for 1 hour or +5° C. over night [0690] 4. Washed 3× with wash buffer [0691] 5. 100 μl Primary antibody was added (dilution see above) [0692] 6. Incubated at RT for 1 hour [0693] 7. Washed 3× with wash buffer [0694] 8. 100 μl Secondary antibody was added (dilution see above) [0695] 9. Incubated at RT for 1 hour [0696] 10. Washed 3× with wash buffer [0697] 11. 100 μl Substrate/Develop buffer was added (Reaction time 3 min) [0698] 12. 100 μl 2M H3PO4 was added [0699] 13. Endpoint was read at 450 nm

[2] = biological target: T2, biotinylated 20mer TLT-1 stalk peptide 8 (N-terminal biotin via 8-amino-3,6-dioxaoctanoic acid (bio-Oeg))
T2 construct: also called well A 8
T2 peptide: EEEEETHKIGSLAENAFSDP
Experimental: as §1, §2

[3] = biological target: T3, biotinylated 16mer hTLT-1 stalk peptide 37 (SMILES …)
T3 construct: also called well D 1
T3 peptide: {Biotin-AEEA}-EEETHKIGSLAENAFS-NH2
Experimental: as §1, §2

[4] = biological target: T4, biotinylated 20mer TLT-1 stalk peptide 14 (N-terminal biotin via 8-amino-3,6-dioxaoctanoic acid (bio-Oeg))
T4 construct: also called well B 2
T4 peptide: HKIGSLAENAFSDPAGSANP
Experimental: as §1, §2

[5] = biological target: T5, biotinylated 20mer TLT-1 stalk peptide 10 (N-terminal biotin via 8-amino-3,6-dioxaoctanoic acid (bio-Oeg))
T5 construct: also called well A10
T5 peptide: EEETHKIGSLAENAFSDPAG
Experimental: as §1, §2

[6] = biological target: T6, biotinylated 20mer TLT-1 stalk peptide 12 (N-terminal biotin via 8-amino-3,6-dioxaoctanoic acid (bio-Oeg))
T6 construct: also called well A12
T6 peptide: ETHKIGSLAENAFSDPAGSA
Experimental: as §1, §2

[7] = biological target: T7, biotinylated 20mer TLT-1 stalk peptide 9 (N-terminal biotin via 8-amino-3,6-dioxaoctanoic acid (bio-Oeg))
T7 construct: also called well A 9
T7 peptide: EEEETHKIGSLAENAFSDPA
Experimental: as §1, §2

[8] = biological target: T8, biotinylated 20mer TLT-1 stalk peptide 16 (N-terminal biotin via 8-amino-3,6-dioxaoctanoic acid (bio-Oeg))
T8 construct: also called well B 4
T8 peptide: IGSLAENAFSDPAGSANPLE
Experimental: as §1, §2

[9] = biological target: T9, biotinylated 16mer hTLT-1 stalk peptide 42 (SMILES …)
T9 construct: also called well D 6
T9 peptide: {Biotin-AEEA}-KIGSLAENAFSDPAGS-NH2
Experimental: as §1, §2

[10] = biological target: T10, biotinylated 20mer TLT-1 stalk peptide 13 (N-terminal biotin via 8-amino-3,6-dioxaoctanoic acid (bio-Oeg))
T10 construct: also called well B 1
T10 peptide: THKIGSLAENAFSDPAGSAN
Experimental: as §1, §2

[11] = biological target: T11, biotinylated 16mer hTLT-1 stalk peptide 39 (SMILES …)
T11 construct: also called well D 3
T11 peptide: {Biotin-AEEA}-ETHKIGSLAENAFSDP-NH2
Experimental: as §1, §2

[12] = biological target: T12, biotinylated 20mer TLT-1 stalk peptide 6 (N-terminal biotin via 8-amino-3,6-dioxaoctanoic acid (bio-Oeg))
T12 construct: also called well A 6
T12 peptide: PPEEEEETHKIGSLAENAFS
Experimental: as §1, §2

[13] = biological target: T13, biotinylated 16mer hTLT-1 stalk peptide 38 (SMILES …)
T13 construct: also called well D 2
T13 peptide: {Biotin-AEEA}-EETHKIGSLAENAFSD-NH2
Experimental: as §1, §2

[14] = biological target: T14, biotinylated 16mer hTLT-1 stalk peptide 36 (SMILES …)
T14 construct: also called well C12
T14 peptide: {Biotin-AEEA}-EEEETHKIGSLAENAF-NH2
Experimental: as §1, §2

[15] = biological target: T15, biotinylated 20mer TLT-1 stalk peptide 15 (N-terminal biotin via 8-amino-3,6-dioxaoctanoic acid (bio-Oeg))
T15 construct: also called well B 3
T15 peptide: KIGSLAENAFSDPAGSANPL
Experimental: as §1, §2

[16] = biological target: T16, biotinylated 20mer TLT-1 stalk peptide 5 (N-terminal biotin via 8-amino-3,6-dioxaoctanoic acid (bio-Oeg))
T16 construct: also called well A 5
T16 peptide: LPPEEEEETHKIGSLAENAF
Experimental: as §1, §2

[17] = biological target: T17, biotinylated 20mer TLT-1 stalk peptide 7 (N-terminal biotin via 8-amino-3,6-dioxaoctanoic acid (bio-Oeg))
T17 construct: also called well A 7
T17 peptide: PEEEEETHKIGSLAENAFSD
Experimental: as §1, §2

[18] = biological target: T18, biotinylated 16mer hTLT-1 stalk peptide 40 (SMILES …)
T18 construct: also called well D 4
T18 peptide: {Biotin-AEEA}-THKIGSLAENAFSDPA-NH2
Experimental: as §1, §2

[19] = biological target: T19, biotinylated 20mer TLT-1 stalk peptide 11 (N-terminal biotin via 8-amino-3,6-dioxaoctanoic acid (bio-Oeg))
T19 construct: also called well A11
T19 peptide: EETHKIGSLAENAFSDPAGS
Experimental: as §1, §2

Measured: absorbance at 450 nm

B1: mAb 0061 HC2; LC2 (antibody, V domains shown)
VH: EVKLLESGGGLVQPGGSLKLSCAASGFDFSRYWMTWVRQAPGKGLEWIGEINPDSSTINYNPSLKDKFIISRDNAKNTLYLQMSEVRSEDTALYYCASGVFTSWGQGTLVTVSA
VL: DVVMTQTPLSLPVSLGDQASISCRSSQSLVHRNGNTYFHWALQKPGQSPKLLIYKVSNRFSGVPDRFSGSGSGTDFTLKISRVEAEDLGVYFCSQSTHVPYTFGGGTKLEIKR
notes: also called 0197-0000-0061; 0012HC.T60N + 0012LC.C36A
> 3 A450: all assays above
